Results reported in article PMC9381478, “A context-dependent and disordered ubiquitin-binding motif” (Cellular and Molecular Life Sciences: CMLS, 2022).

Columns and labels:
[1] = Solubility noted during NMR sample preparation; format: physicochemical; settings: NMR buffer; interaction mapped at 30 µM 15N-Spd1
ubiquitin = molecular target: T1, ubiquitin (Schizosaccharomyces pombe, UniProt P0CH06); assay: NMR titration of 15N-ubiquitin (1H-15N HSQC chemical shift perturbations); format: binding, S. pombe; settings: ratio of Kd values for ubiquitin
T1 construct: plasmid coding for S. pombe ubiquitin with an N-terminal 6xhistidine-tag, TEV-cleavage site as well as an N-terminal free cysteine; made in house; host or cells: E. coli BL21(DE3)
T1 sequence (P0CH06 1-76 limits assumed): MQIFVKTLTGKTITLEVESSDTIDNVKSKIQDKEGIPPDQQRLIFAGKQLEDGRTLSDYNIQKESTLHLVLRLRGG
Method: For interaction of the peptides with ^15N-ubiquitin, the lyophilized peptides were dissolved in MilliQ water and pH adjusted to 7.5. […] For the titrations of ubiquitin with each peptide, except the WT Dss1 peptide, 100 µM ubiquitin in NMR buffer was measured as one end point, and the 1 mM peptide and 100 µM ubiquitin as the other. Then, the peptide sample was titrated into the ubiquitin sample with titration points at 0, 50, 150, 300, 400, 500 and 1000 µM peptide. […] NMR samples were centrifuged 13.000×g for 5 min and transferred to either single-use 5 mm NMR tubes (Bruker) or 3 mm (Shigemi). To prepare NMR samples of ^15 N-labeled ubiquitin with full-length Dss1 and variants, lyophilized proteins were dissolved directly in the NMR buffer. The variants were each dissolved in 510 µL NMR buffer with 100 µM ubiquitin. The concentration of Dss1 in the NMR sample was determined by measuring the absorbance at 280 nm on a ND-1000 NanoDrop spectrophotometer, calibrated with the NMR buffer with 100 µM ubiquitin. The concentration of Dss1 varied between variants, depending on the purification yield. For all titrations, seven points of varying Dss1 concentration were recorded. To prepare NMR samples of ^15N-labeled ubiquitin with Spd1, Spd1 was buffer exchanged to MilliQ using a 3 kDa cut-off Amicon Ultra-0.5 ml centrifugal filter (Merk Millipore), lyophilized and resuspended in NMR buffer with 100 µM ubiquitin. […] For experiments with ubiquitin, 200 µL 1 mM ubiquitin was buffer exchanged to MilliQ water using a 3 kDa cut-off Amicon Ultra-0.5 ml centrifugal filter (Merk Millipore), lyophilized, and subsequently resuspended in 100 µL NMR buffer with 1 mM Dss1 for a final ubiquitin concentration of 2 mM and 1 mM, respectively. All samples were transferred to 3 mm (Shigemi) NMR tubes.
All NMR spectra were recorded on Bruker Avance III HD 600 MHz spectrometer with a Bruker proton-optimized quadruple resonance NMR ‘inverse’ (QCI) cryoprobe, a Bruker Avance III HD 750 MHz spectrometer with a Bruker proton-optimized triple resonance NMR ‘inverse’ (TCI) cryoprobe and a Bruker Avance Neo 800 MHz spectrometer with a Bruker carbon/nitrogen-optimized triple-resonance NMR 'observe' (TXO) cryoprobe. […] All spectra were zero-filled, apodized using cosine bells in all dimensions, Fourier transformed, and the zero-order phase was corrected manually using either nmrDraw, a component of NmrPipe or qMDD if spectra were recorded using non-linear-sampling (NLS). All spectra were analysed using the Analysis software.
The CSPs were fitted to a one-site-binding model using global fit, and the Kd-values are extracted using Eq. 2.2 Δδobs=Δδmax∙Pt+Lt+Kd-Pt+Lt+Kd^2-4Pt∙Lt^1/2/2∙Pt.
Peaks giving rise to large uncertainties in the fit, either due to weak signals or overlap, were removed after a first iteration of fitting, and the fit repeated on the remaining dataset.

| Molecule | solubility [1] | Kd of full-length protein lower than for the peptide alone (ubiquitin) [times] |
| --- | --- | --- |
| Spd1: intrinsically disordered S. pombe protein, sequence printed in b198 (protein, UniProt Q10585 1-124, looked up, full-length) MHSSKRVMTTKTHVEQPESSMRPQLPESIQGSLMDVGMRVRKSISTGYKSKQTTFPAYNPPLYNTVSENIALKNTAFSYEPNGTKRPFEQAIPNYNWANPPQDFEEPEWLKPFDVVMEGTNERL | low solubility | – |
| full-length Dss1: recombinant full-length S. pombe Dss1 (N71C) (protein, left off: His6-SUMO, N-terminal, cleaved) MSRAALPSLENLEDDDEFEDFATENWPMKDTELDTGDDTLWENNWDDEDIGDDDFSVQLQAELKKKGVAAC | – | ~10 |
